Laboratory results published in article PMC12373997.

molecular target: Taxol-stabilized microtubules polymerised from purified porcine brain tubulin (porcine) (UniProt P02550); experiment: co-sedimentation; tubulin co-sedimentation: taxol-stabilized MTs (varied, α/β-tubulin heterodimer molarity) with 1 µM purified N-clamp, 0.25 mg/ml BSA, BRB80-MT buffer (80 mM PIPES, 1 mM MgCl2, 1 mM EGTA, 12.5% glycerol, pH 6.8), 20 min at room temperature, 200,000 g 10 min 27 °C; SDS-PAGE densitometry of pellet; apparent Kd from a quadratic fit

Sequence of X. laevis augmin N-clamp, wild type (HAUS2, HAUS6, HAUS7-EGFP-HIS8, HAUS8-HIS8) (Q0IHJ3 whole entry, looked up, one chain of several): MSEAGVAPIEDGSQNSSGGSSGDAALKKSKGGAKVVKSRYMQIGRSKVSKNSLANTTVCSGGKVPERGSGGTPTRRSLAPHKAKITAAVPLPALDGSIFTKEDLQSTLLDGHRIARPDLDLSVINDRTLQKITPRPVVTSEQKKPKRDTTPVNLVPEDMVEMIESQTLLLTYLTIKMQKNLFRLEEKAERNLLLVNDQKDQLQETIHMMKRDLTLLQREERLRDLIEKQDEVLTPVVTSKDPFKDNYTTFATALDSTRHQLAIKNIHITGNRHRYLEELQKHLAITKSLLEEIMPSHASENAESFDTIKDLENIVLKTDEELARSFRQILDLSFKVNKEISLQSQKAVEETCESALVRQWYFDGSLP
Sequence of X. laevis augmin N-clamp with HAUS8 lacking its N-terminal extension (Q0IHJ3 whole entry, looked up, one chain of several): as above
Sequence of A. thaliana augmin N-clamp with AUG8 lacking its N-terminal extension (O48767 whole entry): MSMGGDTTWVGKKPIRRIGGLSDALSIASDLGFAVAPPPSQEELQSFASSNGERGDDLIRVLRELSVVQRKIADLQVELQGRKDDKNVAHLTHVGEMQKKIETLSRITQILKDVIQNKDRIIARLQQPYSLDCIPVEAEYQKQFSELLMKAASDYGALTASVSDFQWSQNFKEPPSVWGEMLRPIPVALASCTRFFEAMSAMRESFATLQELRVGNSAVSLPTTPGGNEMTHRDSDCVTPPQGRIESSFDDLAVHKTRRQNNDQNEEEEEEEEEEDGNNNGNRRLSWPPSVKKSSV
Sequence of A. thaliana augmin N-clamp with AUG8 lacking its N-terminal extension (Q94BP7 whole entry): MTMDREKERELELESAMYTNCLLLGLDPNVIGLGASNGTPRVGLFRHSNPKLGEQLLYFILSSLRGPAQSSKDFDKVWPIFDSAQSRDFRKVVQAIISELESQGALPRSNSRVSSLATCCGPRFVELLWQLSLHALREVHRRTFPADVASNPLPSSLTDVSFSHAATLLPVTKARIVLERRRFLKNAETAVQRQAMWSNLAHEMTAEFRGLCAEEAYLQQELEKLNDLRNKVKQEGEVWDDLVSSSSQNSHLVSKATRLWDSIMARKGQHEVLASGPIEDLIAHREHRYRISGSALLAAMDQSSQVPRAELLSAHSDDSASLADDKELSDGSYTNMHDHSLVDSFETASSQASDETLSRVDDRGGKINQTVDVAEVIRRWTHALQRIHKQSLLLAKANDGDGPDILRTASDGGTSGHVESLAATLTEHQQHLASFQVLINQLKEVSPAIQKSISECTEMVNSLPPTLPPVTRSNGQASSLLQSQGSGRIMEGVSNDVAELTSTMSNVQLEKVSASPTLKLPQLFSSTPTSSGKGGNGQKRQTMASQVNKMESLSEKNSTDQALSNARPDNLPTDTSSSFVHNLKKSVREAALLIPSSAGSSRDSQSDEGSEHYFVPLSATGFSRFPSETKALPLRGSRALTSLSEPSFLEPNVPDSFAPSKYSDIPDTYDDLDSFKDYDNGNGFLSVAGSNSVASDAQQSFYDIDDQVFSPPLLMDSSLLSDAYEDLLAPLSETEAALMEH
Sequence of A. thaliana augmin N-clamp with AUG8 lacking its N-terminal extension (Q0WTP1 whole entry): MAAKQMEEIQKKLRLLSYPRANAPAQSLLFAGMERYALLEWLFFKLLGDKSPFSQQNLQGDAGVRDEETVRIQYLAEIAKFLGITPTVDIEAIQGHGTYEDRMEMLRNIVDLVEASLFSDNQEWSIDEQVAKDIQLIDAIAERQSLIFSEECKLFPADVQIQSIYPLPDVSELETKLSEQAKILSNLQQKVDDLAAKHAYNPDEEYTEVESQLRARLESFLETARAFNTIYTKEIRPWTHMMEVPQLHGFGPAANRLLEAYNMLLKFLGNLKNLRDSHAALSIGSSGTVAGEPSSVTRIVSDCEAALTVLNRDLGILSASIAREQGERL
Sequence of A. thaliana augmin N-clamp with AUG8 lacking its N-terminal extension (Q9SUH5 whole entry): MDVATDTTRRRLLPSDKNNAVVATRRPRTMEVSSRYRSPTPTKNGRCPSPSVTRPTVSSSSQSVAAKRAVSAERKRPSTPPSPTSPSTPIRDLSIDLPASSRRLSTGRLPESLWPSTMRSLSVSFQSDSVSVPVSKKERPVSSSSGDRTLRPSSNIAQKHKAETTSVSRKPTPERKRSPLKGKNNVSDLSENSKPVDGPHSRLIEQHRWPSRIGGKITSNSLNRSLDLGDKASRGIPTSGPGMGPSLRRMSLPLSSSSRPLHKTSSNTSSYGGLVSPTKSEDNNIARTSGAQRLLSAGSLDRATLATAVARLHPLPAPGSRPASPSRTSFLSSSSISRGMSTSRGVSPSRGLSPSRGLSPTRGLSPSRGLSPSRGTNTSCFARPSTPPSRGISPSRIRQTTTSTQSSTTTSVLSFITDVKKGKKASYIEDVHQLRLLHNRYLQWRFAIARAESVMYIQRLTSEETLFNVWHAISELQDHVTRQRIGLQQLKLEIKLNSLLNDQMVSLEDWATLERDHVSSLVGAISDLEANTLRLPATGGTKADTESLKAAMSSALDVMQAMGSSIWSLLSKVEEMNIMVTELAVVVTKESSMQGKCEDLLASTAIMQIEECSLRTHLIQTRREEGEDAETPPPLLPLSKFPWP

Kd | Substance
10 nM | A. thaliana augmin N-clamp, wild type (orthologs of HAUS2, HAUS6, HAUS7-EGFP-HIS8, HAUS8-HIS8) (from UniProt O48767 1-296; Q94BP7 1-741; Q0WTP1 1-329; Q9SUH5 1-644) (complex)
40 nM | GST-tagged D. melanogaster augmin N-clamp (Msd1, Dgt6, Msd5-EGFP-GST, Dgt4-HIS8) (from UniProt Q9W0G7 1-138; Q9VAP2 1-654; Q9W4M8 1-188) (complex)
2200 nM | X. laevis augmin N-clamp with HAUS8 lacking its N-terminal extension (from UniProt Q0IHJ3 1-367; Q0IHJ3 1-367; Q0IHJ3 1-367) (complex)

Continued, substance first:

Substance | Kd
A. thaliana augmin N-clamp with AUG8 lacking its N-terminal extension (from UniProt O48767 1-296; Q94BP7 1-741; Q0WTP1 1-329; Q9SUH5 1-644) (complex) | 2100 nM
H. sapiens augmin N-clamp with HAUS6^4A-mut (K84A, R90A, K91A, K98A) (from UniProt Q9NVX0 1-235; Q7Z4H7 1-955; Q99871 1-358; Q9BT25 1-410) (complex) | 5600 nM
H. sapiens augmin N-clamp, wild type (HAUS2, HAUS6, HAUS7-EGFP-HIS8, HAUS8-HIS8) (from UniProt Q9NVX0 1-235; Q7Z4H7 1-955; Q99871 1-358; Q9BT25 1-410) (complex) | 800 nM
X. laevis augmin N-clamp, wild type (HAUS2, HAUS6, HAUS7-EGFP-HIS8, HAUS8-HIS8) (from UniProt Q0IHJ3 1-367; Q0IHJ3 1-367; Q0IHJ3 1-367) (complex) | 600 nM
